Three molecules from patent publication US20230312724A1 (KADMON, published 2023) can be followed below.

Assay [1] concerns the target T1, IgC domain of human B7-H4-Fc (human).
T1 construct: also called hB7-H4 IgC domain
The assay can be described thus: ELISA, coated hB7-H4 IgC domain (title on the sheet: IgC domain of hB7H4). As for the experimental part:
(§1) About 1-2 μg/ml of human or mouse B7-H4-Fc (or his-tagged) was immobilized on ELISA plates (Immuno 2HB, Thermo scientific, cat #3455) at 4° C. overnight. After blocking the plates with 3% PBS+milk, serial diluted antibodies were added to the blocked plates and incubated at RT for 1-1.5 h. After washing the plates with PBS-T (0.05%), horse radish peroxidase (HRP)-conjugated antibody targeting the hFab was added to the plate. Signals were developed by adding 3,3′,5,5′-Tetramethylbenzidine (TMB (followed 1N of H₂SO₄ to stop the reaction. The OD at 450 nm was read by ELISA plate reader (Infinite M1000 from TECAN). GraphPad from Prism was used to plot OD450 vs. antibody concentration curve and to calculate the EC50 values.

The target in assay [2] is T2, IgV domain of mouse B7-H4-Fc (mouse; human).
T2 construct: also called mB7-H4 IgV domain
T2 sequence (chain, as listed by the source): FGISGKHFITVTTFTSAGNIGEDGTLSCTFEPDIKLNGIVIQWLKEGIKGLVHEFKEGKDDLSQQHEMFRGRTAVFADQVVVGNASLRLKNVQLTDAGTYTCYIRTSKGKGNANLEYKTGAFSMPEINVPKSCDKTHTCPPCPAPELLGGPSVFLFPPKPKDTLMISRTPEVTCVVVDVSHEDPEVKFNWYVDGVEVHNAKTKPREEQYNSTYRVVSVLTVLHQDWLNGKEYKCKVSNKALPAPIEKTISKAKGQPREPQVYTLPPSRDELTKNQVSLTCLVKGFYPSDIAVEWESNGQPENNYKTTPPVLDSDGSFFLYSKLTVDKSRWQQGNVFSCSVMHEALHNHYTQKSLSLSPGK
The assay can be described thus: ELISA, coated mB7-H4 IgV domain. In a few lines:
(§2)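 Following overnight 4° C coating with about 1-2 μg/ml B7-H4-Fc or his-tagged protein and 3% PBS+milk blocking, antibody dilution series bind 1-1.5 h at RT. HRP anti-hFab plus TMB yields OD450, from which EC50 is derived.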
For orientation: ELISA stands for enzyme-linked immunosorbent assay.

In assay [3] the target is T3, hB7-H4 (soluble human B7-H4, construct not named) (human, UniProt Q7Z7D3 25-259, limits assumed).
T3 construct: also called soluble hB7-H4
T3 sequence: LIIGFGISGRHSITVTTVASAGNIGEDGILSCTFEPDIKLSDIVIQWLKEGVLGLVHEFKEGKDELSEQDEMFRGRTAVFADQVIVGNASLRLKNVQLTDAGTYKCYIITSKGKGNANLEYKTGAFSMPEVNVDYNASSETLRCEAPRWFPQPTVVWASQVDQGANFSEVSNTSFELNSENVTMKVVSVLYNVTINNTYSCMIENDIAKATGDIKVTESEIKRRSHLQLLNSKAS
Put plainly: ELISA, hB7-H4. In short, it runs like this:
as §2

Assay [4] addresses T4, IgC domain of mouse B7-H4-Fc (mouse; human).
T4 construct: also called mB7-H4 IgC domain
Put plainly: ELISA, coated mB7-H4 IgC domain (title on the sheet: IgC domain of mB7H4). The method, then:
as §1

Assay [5] deals with T5, human B7-H4 expressed on cells (human, UniProt Q7Z7D3 25-282).
T5 construct: Transfected CHO cells or tumor cell lines that carry hB7-H4; also called cellular hB7-H4
T5 sequence: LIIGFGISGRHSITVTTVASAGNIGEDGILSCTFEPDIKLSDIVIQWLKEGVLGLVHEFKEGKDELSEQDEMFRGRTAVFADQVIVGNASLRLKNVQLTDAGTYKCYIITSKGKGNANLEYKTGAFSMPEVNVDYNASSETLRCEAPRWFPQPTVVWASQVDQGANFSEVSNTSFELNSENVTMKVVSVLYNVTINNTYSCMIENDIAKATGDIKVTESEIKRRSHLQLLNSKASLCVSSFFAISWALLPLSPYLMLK
The assay can be described thus: flow cytometry, SK-BR-3 cells. In a few lines: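 Cell-surface binding read by flow cytometry: cells (1×10⁶/ml, cold FACS buffer) + serial dilutions of antibody or fusion protein, 1 h, 4 °C; 3 washes; secondary Ab 1:200, 30 min, 4 °C, dark.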
(In general: Flow cytometry measures light scatter and fluorescence of single cells or particles in a stream.)

Assay [6] addresses T3, hB7-H4 (soluble human B7-H4, construct …). Put plainly: SPR (Biacore). In short, it runs like this: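 Kinetic constants came from a 1:1 Langmuir fit of binding at 25 °C in HBS-EP, pH 7.4. Analyte (100 nM to 0.1 nM) flowed for 180 s, then dissociated for 1000 or 1200 s, over amine-coupled human B7-H4-Fc, human B7-H4-his or mouse B7-H4-Fc surfaces at 50-100 RU.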
For assay [7], the target named is T6, mouse B7-H4-Fc (mouse; human).
T6 construct: also called mB7-H4-Fc; mB7-H4-hFc
T6 sequence (chain, as listed by the source): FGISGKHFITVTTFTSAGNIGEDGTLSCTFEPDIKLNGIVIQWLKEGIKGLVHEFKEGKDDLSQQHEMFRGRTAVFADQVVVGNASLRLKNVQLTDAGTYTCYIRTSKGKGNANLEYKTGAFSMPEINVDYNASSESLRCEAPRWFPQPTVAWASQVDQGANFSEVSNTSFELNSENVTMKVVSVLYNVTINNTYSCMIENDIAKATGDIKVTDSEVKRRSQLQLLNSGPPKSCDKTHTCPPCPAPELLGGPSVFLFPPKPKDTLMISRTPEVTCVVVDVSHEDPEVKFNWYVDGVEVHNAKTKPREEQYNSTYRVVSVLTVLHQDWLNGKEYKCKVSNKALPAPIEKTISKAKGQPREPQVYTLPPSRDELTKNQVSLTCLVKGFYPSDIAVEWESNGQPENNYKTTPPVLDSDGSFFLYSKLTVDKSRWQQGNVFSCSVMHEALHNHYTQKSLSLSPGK
The assay can be described thus: ELISA, coated mB7-H4-Fc (title on the sheet: Binding to mB7-H7-Fc). As for the experimental part: as §1

In assay [8] the target is T7, mB7-H4 (soluble mouse B7-H4, construct not named) (mouse, UniProt Q7TSP5 25-257, limits assumed).
T7 sequence: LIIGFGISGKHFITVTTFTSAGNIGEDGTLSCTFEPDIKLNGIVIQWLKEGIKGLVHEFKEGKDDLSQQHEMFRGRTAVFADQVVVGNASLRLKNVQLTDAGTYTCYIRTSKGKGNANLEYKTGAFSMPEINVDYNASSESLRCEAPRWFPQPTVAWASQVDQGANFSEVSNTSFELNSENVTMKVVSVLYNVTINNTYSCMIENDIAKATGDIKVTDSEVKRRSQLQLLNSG
Put plainly: ELISA and SPR (Biacore). The method, then: as §1
Surface plasmon resonance experiments were performed using a Biacore T200 instrument equipped with CM5 sensor chips. The system was equilibrated in running buffer HBS-EP pH 7.4. The ligands were immobilized using amine-coupling chemistry. The surfaces of flow cells one through four were activated for 5 min using an amine coupling kit at a flow rate of […]. The ligands (human B7-H4-Fc, human B7-H4-hism and mouse B7-H4-Fc; at a concentration of 5 μg/ml in 10 mM sodium acetate, pH 5.0) were immobilized at a density of 50-100 RU on flow cell 2, 3, 4 respectively. Flow cell 1 was left blank to serve as a reference surface. All flow cell surfaces were blocked with a 5 min injection of 1 M ethanolamine, pH 8.0. To collect kinetic binding data, the respective analyte (diluted in 1×HBS-EP buffer, pH 7.4) was injected over the four flow cells at concentrations of 100 nM to 0.1 nM at a flow rate of […] and at a temperature of 25° C. The protein complex was allowed to associate and dissociate for 180 seconds and 1000 or 1200 seconds, respectively. The surfaces were regenerated with a 30 second injection of 1.5 M NaCl/0.05 M NaOH. The data were fit to a simple 1:1 interaction model using the Langmuir fit option available within the Biaevaluaton software

In assay [9] the target is T8, mouse B7-H4 expressed on cells (mouse, UniProt Q7TSP5 25-257).
T8 construct: also called cellular mB7-H4; mB7-H4/CT26
T8 sequence: T7 sequence
The assay can be described thus: flow cytometry, CHO cells expressing mB7-H4.

The target of the next assay is T9, mouse B7-H4-his (mouse, UniProt Q7TSP5 25-257).
T9 construct: also called mB7-H4-his; mB7-H4-His; not shown: his tag
T9 sequence: T7 sequence
Put plainly: ELISA, coated mB7-H4-his. As for the experimental part:
as §1

Assay [10] deals with T3, hB7-H4 (soluble human B7-H4, construct …). Put plainly: ELISA, hB7-H4. The method, then: as §1
The source holds these as a separate data set.

Assay [11] deals with T7, mB7-H4 (soluble mouse B7-H4, construct …). The assay can be described thus: SPR (Biacore); values equal to Table 11. In general terms: Surface plasmon resonance follows binding to a sensor surface in real time, without labels.
Assay [12] shares this target. The assay can be described thus: ELISA, mB7-H4. The method, then: as §1
In assay [13] the target is T1, IgC domain of human B7-H4-Fc. Put plainly: ELISA, coated hB7-H4 IgC domain. The method, then:
ELISA experiments were performed to determine binding to hB7-H4-Fc (FIG. 5A), hB7-H4-his (FIG. 5B), mB7-H4-Fc domain (FIG. 5C), hB7-H4 IgV domain (FIG. 5D), and hB7-H4 IgC domain (FIG. 5E). Flow cytrometry experiments were performed to determine binding to CHO cells expressing hB7-H4 (FIG. 5F) or mB7-H4 (FIG. 5G). […] A cross-reactive IgV binding antibody and an IgC binding antibody were used as controls.
as §1

The target in assay [14] is T2, IgV domain of mouse B7-H4-Fc. Put plainly: ELISA, coated mB7-H4 IgV domain. This is another data set of the same source.
Assay [15] has as its target T8, mouse B7-H4 expressed on cells. The assay can be described thus: flow cytometry, mB7-H4/CT26 cells.
Assay [16] has as its target T6, mouse B7-H4-Fc. Put plainly: ELISA, coated mB7-H4-Fc. In short, it runs like this:
as §2

Assay [17] has as its target T5, human B7-H4 expressed on cells. The assay can be described thus: flow cytometry, SK-BR-3 cells. This is another data set of the same source.
Assay [18] has as its target T3, hB7-H4 (soluble human B7-H4, construct …). Put plainly: SPR (Biacore). The source holds these as a separate data set.
Assay [19] has as its target T1, IgC domain of human B7-H4-Fc. The assay can be described thus: ELISA, coated hB7-H4 IgC domain. This is another data set of the same source.
Assay [20] addresses T10, IgV domain of human B7-H4-Fc (human).
T10 construct: also called hB7-H4 IgV domain
Put plainly: ELISA, coated hB7-H4 IgV domain.

Where a chain is given by its changes, count along the chain named. Where two headings read alike, the source gives them in different places.

T1 sequence (chain, as listed by the source): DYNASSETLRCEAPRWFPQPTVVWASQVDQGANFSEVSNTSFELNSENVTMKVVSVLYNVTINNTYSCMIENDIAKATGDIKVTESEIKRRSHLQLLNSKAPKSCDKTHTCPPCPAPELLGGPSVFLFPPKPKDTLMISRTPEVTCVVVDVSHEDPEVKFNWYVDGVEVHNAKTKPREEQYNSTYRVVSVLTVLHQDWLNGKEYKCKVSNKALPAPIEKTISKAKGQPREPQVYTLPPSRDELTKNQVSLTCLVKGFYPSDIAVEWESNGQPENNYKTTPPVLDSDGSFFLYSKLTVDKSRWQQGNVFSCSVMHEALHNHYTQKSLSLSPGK
T4 sequence (chain, as listed by the source): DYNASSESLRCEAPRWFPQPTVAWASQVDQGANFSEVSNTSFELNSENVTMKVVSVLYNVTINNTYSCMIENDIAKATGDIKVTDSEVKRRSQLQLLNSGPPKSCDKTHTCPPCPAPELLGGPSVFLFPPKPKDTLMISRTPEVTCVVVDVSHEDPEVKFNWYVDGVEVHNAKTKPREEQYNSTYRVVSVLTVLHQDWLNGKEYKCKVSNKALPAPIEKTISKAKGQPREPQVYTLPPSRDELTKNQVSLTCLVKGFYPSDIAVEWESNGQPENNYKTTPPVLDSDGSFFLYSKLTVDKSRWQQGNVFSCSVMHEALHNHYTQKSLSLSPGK
T10 sequence (chain, as listed by the source): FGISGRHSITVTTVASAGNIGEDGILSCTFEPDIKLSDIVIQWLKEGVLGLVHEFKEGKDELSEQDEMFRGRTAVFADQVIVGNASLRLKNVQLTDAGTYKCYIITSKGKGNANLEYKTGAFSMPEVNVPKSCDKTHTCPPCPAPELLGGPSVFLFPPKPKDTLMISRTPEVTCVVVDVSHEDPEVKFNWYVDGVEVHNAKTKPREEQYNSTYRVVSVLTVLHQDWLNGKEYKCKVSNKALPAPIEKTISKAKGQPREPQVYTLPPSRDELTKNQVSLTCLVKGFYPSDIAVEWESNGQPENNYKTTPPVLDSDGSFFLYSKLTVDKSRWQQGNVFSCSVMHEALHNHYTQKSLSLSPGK

B1: 1D3/45A2 (antibody, human IgG1, V domains shown)
VH: EVQLLESGGGLVQPGGSLRLSCAASGFTFNTHAMHWVRQAPGKGLEWVSAISGSGGSTYYADSVKGRFTISRDISKNTLYLQMNSLRAEDTAVYYCARLLGRFGEYGMDVWGQGTTVTVSS
VL: DIQMTQSPSSLSASVGDRVTITCRASQNIYTWLAWYQQKPGKAPKLLIYDATNLPTGVPSRFSGSGSGTDFTLTISSLQPEDFATYYCQQSYSTRWTFGGGTKVEIK
notes: 1D3 VH with 45A2 VL
The EC50 is the midpoint of the concentration-response curve. High values mean lower potency in that assay, low ones higher potency in that assay. The term Kd denotes a measure of binding affinity in units of concentration. Low values mean higher affinity, high ones lower affinity. Take B1: the binding result is given as “no binding (tested: axis value -8 (labelled log nM))” in [1]; “no binding (tested: axis value -8 (labelled log nM))” in [2]; “no binding (tested: axis value -8 (labelled log nM))” in assay [4]; “no binding (tested: axis value -8 (log scale labelled nM))” in the assay with mouse B7-H4-Fc [7]; “no binding” in assay [8]; “no binding (tested: log 2 nM (100 nM))” in [9]. For the same molecule, in the assay with mouse B7-H4-his, the binding result is “no binding (tested: axis value -8 (labelled log nM))”. The EC50 in assay [3] is 0.041 nM; in assay [5] it was 52.1 nM. For the same molecule, the Kd in [6] amounted to 0.317 nM.

B2: 1D3/47B2 (antibody, human IgG1, V domains shown)
VH: B1 VH
VL: B1 VL with N28T, I29V, P55A, R95S
notes: 1D3 VH with 47B2 VL
Regarding B2, the binding result in [1] is listed as “no binding (tested: axis value -8 (labelled log nM))”; in assay [2] it was “no binding (tested: axis value -8 (labelled log nM))”; in [4], “no binding (tested: axis value -8 (labelled log nM))”; with mouse B7-H4-Fc [7], “no binding (tested: axis value -8 (log scale labelled nM))”; in [8] it was “no binding”; in assay [9], “no binding (tested: log 2 nM (100 nM))”. In addition, the binding result with mouse B7-H4-his was “no binding (tested: axis value -8 (labelled log nM))”. Further, the EC50 amounted to 0.078 nM in assay [3] and 36 nM in [5]. This molecule yielded a Kd in assay [6] of 0.209 nM.

B3: Control antibody 2 (antibody 6H3 described in U.S. Pat. No. 9,574,000) (antibody, V domains shown)
VH: EVQLQQSGPVLVKPGTSVKMSCKASGYTFTDYYMNWVKQSHGKSLEWIGVINPYNGDTTYNQKFKGKATLTVDKSSSTAYMEVNSLTFEDSAVYYCARYPESTYWGQGTLVTVSA
VL: DVVMTQTPLSLPVSLGDQASISCRSSQSLVHINGNTYLHWYLQKPGQSPKVLIYKVSNRFSGVPDRFSGSGSGTDFTLKISRVEAEDLGVYFCSQSTHVPLTFGAGTKLELK
notes: also called (+) control Ab2; Ab2
The term EC50 (read off the curve) denotes the concentration giving half of the maximal effect. A higher EC50 (read off the curve) goes with a need for much substance. With B3, the EC50 in assay [10] was determined as 0.222 nM; in assay [12] it was 0.289 nM; in assay [15] it was 18.4 nM; in assay [17] it was 3.37 nM. The dissociation constant (Kd) in [11] and in assay [18] was 0.626 nM throughout. For the same molecule, the “EC50 (read off the curve)” value is approximately 0.01 µg/mL in [13] and approximately 0.2 nM in assay [19]. In addition, the values for the binding result (in assay [14]; in the assay with mouse B7-H4-Fc [16]; in assay [20]) were “no binding (tested: log 1 nM (10 nM))”, “binds” and “no binding (tested: log 1 nM (10 nM))”, respectively.
